B1: UPF2-ALm (residues 1024–1085) (domain or fragment, human, UniProt Q9HAU5 1024-1085, looked up)
chain: TEGENLEEDEEEEEGGAETEEQSGNESEVNEPEEEEGSDNDDDEGEEEEEENTDYLTDSNKE
notes: human UPF2, residues 1024–1085 of the acidic linker; source: E. coli, purified; 15N-labelled
B2: UPF2 as used in surface plasmon resonance (domain or fragment)
chain: KKKTEGENLEEDEEEEEGGAETEEQSGNESEVNEPEEEEGSDNDDDEGEEEEEENTDYLTDSNKE
modifications: not fully specified; numbers in words are those of the source; also: modified acidic linker UPF2-ALm, further changes not given here

Columns and labels:
3′hExofl = molecular target: T1, 3′hExofl (human, UniProt Q8IV48 1-349); test: NMR titration; 1H-15N HSQC of 15N-labelled UPF2-AL or UPF2-ALm with stepwise addition of unlabelled 3′hExo proteins; 298 K; 20 mM HEPES pH 7.0, 100 mM NaCl, 2 mM DTT; KD from twelve amide peaks, one-to-one binding isotherm; conditions: both partners purified
T1 construct: human 3′hExo (ERI1), full length; Modified pET28a, N-terminal 6x His-tag followed by an HRV-3C site; also called ERI1; full-length 3′hExo; source: E. coli BL21 Star (DE3) pRARE, purified (Ni-NTA, heparin, SEC)
T1 sequence (looked up): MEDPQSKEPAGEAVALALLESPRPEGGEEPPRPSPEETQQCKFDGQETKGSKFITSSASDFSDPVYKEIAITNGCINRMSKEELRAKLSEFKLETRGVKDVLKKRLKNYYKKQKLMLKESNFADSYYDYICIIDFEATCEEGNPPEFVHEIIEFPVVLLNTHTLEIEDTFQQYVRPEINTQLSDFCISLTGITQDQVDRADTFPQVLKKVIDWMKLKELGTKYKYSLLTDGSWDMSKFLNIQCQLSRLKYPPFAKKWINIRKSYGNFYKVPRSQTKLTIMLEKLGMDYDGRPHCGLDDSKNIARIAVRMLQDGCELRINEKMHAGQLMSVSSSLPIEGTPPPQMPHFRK

[1] = molecular target: T2, 3′hExo as used in surface plasmon resonance (human, UniProt Q8IV48 1-349); test: SPR; format not told in the text shown; conditions: both partners purified
T2 construct: human 3′hExo (ERI1); Likely 3′hExofl
T2 sequence (looked up): T1 sequence (looked up)

Binder | Kd (3′hExofl) [µM] | Kd [1] [µM]
B1 | ~200 | –
B2 | – | ~170

Source: paper PMC12775136, “Mechanistic insights into recruitment and regulation of the RNA helicase UPF1 in replication-dependent histone mRNA decay” (Nature Communications, 2025)
